Measured values published in publication PMC9888213, “The Mobility of the Cap Domain Is Essential for the Substrate Promiscuity of a Family IV Esterase from Sorghum Rhizosphere Microbiome” (Applied and Environmental Microbiology, 2023).

Columns and labels:
Test in all cases: purified protein
Assay type in all cases: biochemical, uncultured Sphingomonas sp.
[1] = test system: T1, CC(=O)Oc1ccc([N+](=O)[O-])cc1; settings: 50 mM potassium phosphate pH 7.0, 0.3% Triton X-100, 30 °C, up to 5% DMSO-acetonitrile
T1 construct: full length, 324 residues, N-terminal His6 tag (p15TV-L), expressed in E. coli BL21(DE3), Ni-NTA purified; homodimer

[2] = test system: T2, CCCC(=O)Oc1ccc([N+](=O)[O-])cc1; settings: 50 mM potassium phosphate pH 7.0, 0.3% Triton X-100, 30 °C, up to 5% DMSO-acetonitrile
T2 construct: full length, 324 residues, N-terminal His6 tag (p15TV-L), expressed in E. coli BL21(DE3), Ni-NTA purified; homodimer

[3] = test system: T3, CCCCCCCCCCCC(=O)Oc1ccc([N+](=O)[O-])cc1; settings: 50 mM potassium phosphate pH 7.0, 0.3% Triton X-100, 30 °C, up to 7.5% DMSO-acetonitrile
T3 construct: full length, 324 residues, N-terminal His6 tag (p15TV-L), expressed in E. coli BL21(DE3), Ni-NTA purified; homodimer

**Q.** How did the Km [1] turn out when EH0 (uncultured Sphingomonas sp.) was run?
**A.** 1610 ± 120 µM

**Q.** What about the Vmax [1] of the same substance?
**A.** 292 µM/min

**Q.** What about the kcat [1] of the same substance?
**A.** 0.694 ± 0.0182 s⁻¹

**Q.** And the kcat/Km [1]?
**A.** 430 M⁻¹ s⁻¹

**Q.** What about the Km [2] of the same substance?
**A.** 1080 ± 180 µM

**Q.** And the Vmax [2]?
**A.** 253 µM/min

**Q.** What about the kcat [2] of the same substance?
**A.** 0.602 ± 0.033 s⁻¹

**Q.** And the kcat/Km [2]?
**A.** 558 M⁻¹ s⁻¹

**Q.** And the Km [3]?
**A.** 1000 ± 280 µM

**Q.** What about the Vmax [3] of the same substance?
**A.** 25.6 µM/min

**Q.** And the kcat [3]?
**A.** 0.0608 ± 0.00433 s⁻¹

**Q.** And the kcat/Km [3]?
**A.** 61 M⁻¹ s⁻¹
